The text below walks through data of paper PMC12549891.

This assay deals with human olfactory CNGA2/A4/B1b heterotetrameric channel (human) (UniProt Q16280).
Sequence of human olfactory CNGA2/A4/B1b heterotetrameric channel (human) (Q16280 whole entry, chain 1 of 3): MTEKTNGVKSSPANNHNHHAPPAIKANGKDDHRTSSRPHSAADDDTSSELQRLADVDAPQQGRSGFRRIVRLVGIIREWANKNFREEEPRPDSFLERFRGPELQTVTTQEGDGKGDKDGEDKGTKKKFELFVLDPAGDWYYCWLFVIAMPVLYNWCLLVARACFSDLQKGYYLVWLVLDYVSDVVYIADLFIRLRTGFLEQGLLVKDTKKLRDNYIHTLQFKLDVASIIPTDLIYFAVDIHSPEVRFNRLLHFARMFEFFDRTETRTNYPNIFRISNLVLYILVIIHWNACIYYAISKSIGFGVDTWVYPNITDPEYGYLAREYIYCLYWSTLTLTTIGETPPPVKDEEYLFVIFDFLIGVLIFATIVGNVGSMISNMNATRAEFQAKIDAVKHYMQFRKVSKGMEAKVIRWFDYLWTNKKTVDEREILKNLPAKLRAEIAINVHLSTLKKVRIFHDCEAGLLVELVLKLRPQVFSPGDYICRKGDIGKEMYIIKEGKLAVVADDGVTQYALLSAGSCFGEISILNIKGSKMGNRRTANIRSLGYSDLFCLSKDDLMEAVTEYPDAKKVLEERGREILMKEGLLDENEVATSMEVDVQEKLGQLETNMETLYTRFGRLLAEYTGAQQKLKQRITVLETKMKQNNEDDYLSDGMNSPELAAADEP
Sequence of human olfactory CNGA2/A4/B1b heterotetrameric channel (human) (Q8IV77 whole entry, chain 2 of 3, further chain): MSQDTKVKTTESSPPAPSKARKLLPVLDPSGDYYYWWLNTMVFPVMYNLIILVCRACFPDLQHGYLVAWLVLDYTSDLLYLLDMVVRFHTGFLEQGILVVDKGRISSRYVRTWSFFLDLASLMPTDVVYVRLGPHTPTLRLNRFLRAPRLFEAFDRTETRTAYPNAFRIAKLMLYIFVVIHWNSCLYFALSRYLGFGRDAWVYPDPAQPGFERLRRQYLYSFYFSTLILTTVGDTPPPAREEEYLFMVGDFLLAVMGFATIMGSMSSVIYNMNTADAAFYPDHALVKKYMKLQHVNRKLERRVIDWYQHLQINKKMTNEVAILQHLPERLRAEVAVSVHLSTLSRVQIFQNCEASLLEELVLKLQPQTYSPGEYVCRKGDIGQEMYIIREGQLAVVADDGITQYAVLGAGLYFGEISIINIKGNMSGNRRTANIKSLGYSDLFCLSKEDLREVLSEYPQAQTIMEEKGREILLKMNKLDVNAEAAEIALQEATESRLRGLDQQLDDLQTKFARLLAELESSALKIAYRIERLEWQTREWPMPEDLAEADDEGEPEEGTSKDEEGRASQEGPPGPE
Sequence of human olfactory CNGA2/A4/B1b heterotetrameric channel (human) (Q14028 456-1251, chain 3 of 3, further chain): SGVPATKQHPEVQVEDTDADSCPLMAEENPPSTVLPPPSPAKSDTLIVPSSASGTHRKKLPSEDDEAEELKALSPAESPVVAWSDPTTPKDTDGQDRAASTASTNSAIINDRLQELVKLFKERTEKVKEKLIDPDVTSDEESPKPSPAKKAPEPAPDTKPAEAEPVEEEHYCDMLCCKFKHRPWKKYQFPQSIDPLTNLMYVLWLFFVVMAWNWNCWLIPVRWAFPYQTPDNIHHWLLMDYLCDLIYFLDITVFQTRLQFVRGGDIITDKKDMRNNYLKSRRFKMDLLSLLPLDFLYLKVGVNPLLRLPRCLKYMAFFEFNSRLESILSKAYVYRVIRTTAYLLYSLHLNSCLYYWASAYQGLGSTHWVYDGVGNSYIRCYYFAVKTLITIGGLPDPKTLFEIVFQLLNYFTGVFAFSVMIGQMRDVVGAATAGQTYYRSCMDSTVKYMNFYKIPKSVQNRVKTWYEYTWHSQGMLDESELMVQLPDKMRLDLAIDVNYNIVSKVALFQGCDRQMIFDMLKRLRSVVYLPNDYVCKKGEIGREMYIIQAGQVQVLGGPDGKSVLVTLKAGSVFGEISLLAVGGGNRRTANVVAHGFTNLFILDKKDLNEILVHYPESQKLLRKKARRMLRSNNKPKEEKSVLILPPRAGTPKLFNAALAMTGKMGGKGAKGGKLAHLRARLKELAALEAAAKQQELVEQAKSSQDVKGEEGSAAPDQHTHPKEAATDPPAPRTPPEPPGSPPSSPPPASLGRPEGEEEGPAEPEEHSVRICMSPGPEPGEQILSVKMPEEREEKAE

In turn, “human calmodulin (from UniProt P0DP23 1-149) (natural protein)” gave a time of washout with EGTA-containing bath solution needed to remove the bound (endogenous) CaM from the channel in excised patches of 10 min.
